Experimental data: US20140271457A1 (AbbVie / Abbott, published 2014)
Residue numbers refer to the chain shown, from its start. Blank lines part the entries; values can stand above or below the binder they belong to.

Target: Recombinant Human TNF-α/TNFSF1A (human, UniProt P01375 77-233)
Assay: cell-based or functional assay

Recombinant Human TNF-α/TNFSF1A, sequence (P01375 77-233 limits assumed): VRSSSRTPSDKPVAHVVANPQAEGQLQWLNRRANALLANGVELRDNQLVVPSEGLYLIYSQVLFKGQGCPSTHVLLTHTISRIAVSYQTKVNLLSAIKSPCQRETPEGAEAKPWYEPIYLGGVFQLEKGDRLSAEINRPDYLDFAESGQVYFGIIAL

C-Terminal VD huTNFα Neutralization Assay IC50: 2.88 nM
B1: DVD2748 (bispecific antibody, IgG1)
VH: EVQLVQSGAEVKKPGASVKVSCKASGYTFTKYWLGWVRQAPGQGLEWMGDIYPGYDYTHYNEKFKDRVTLTTDTSTSTAYMELRSLRSDDTAVYYCARSDGSSTYWGQGTLVTVSSGGGGSGGGGSEVQLVESGGGLVQPGGSLRLSCAASGFTFSNYGVEWVRQAPGKGLEWVSGIWADGSTHYADTVKSRFTISRDNSKNTLYLQMNSLRAEDTAVYYCAREWQHGPVAYWGQGTLVTVSS
VL: DVLMTQTPLSLPVTPGEPASISCTSSQNIVHSNGNTYLEWYLQKPGQSPQLLIYKVSNRFSGVPDRFSGSGSGTDFTLKISRVEAEDVGVYYCFQVSHVPYTFGGGTKVEIKRGGSGGGGSGDIQMTQSPSSLSASVGDRVTITCKASQLVSSAVAWYQQKPGKAPKLLIYWASTLHTGVPSRFSGSGSGTDFTLTISSLQPEDFATYYCQQHYRTPFTFGQGTKLEIKR

N-Terminal VD huTNFα Neutralization Assay IC50: 0.003 nM
B2: DVD2747 (bispecific antibody, IgG1)
VH: EVQLVESGGGLVQPGGSLRLSCAASGFTFSNYGVEWVRQAPGKGLEWVSGIWADGSTHYADTVKSRFTISRDNSKNTLYLQMNSLRAEDTAVYYCAREWQHGPVAYWGQGTLVTVSSASTKGPSVFPLAPEVQLVQSGAEVKKPGASVKVSCKASGYTFTKYWLGWVRQAPGQGLEWMGDIYPGYDYTHYNEKFKDRVTLTTDTSTSTAYMELRSLRSDDTAVYYCARSDGSSTYWGQGTLVTVSS
VL: DIQMTQSPSSLSASVGDRVTITCKASQLVSSAVAWYQQKPGKAPKLLIYWASTLHTGVPSRFSGSGSGTDFTLTISSLQPEDFATYYCQQHYRTPFTFGQGTKLEIKRTVAAPDVLMTQTPLSLPVTPGEPASISCTSSQNIVHSNGNTYLEWYLQKPGQSPQLLIYKVSNRFSGVPDRFSGSGSGTDFTLKISRVEAEDVGVYYCFQVSHVPYTFGGGTKVEIKR

N-Terminal VD huTNFα Neutralization Assay IC50: 0.006 nM
B3: DVD2793 (bispecific antibody, IgG1)
VH: EVQLVQSGAEVKKPGASVKVSCKASGYTFANYGIIWVRQAPGQGLEWMGWINTYTGKPTYAQKFQGRVTMTTDTSTSTAYMELSSLRSEDTAVYYCARKLFTTMDVTDNAMDYWGQGTTVTVSSGGGGSGGGGSEVQLVQSGAEVKKPGASVKVSCKASGYTFTKYWLGWVRQAPGQGLEWMGDIYPGYDYTHYNEKFKDRVTLTTDTSTSTAYMELRSLRSDDTAVYYCARSDGSSTYWGQGTLVTVSS
VL: DIQMTQSPSSLSASVGDRVTITCRASQDISQYLNWYQQKPGKAPKLLIYYTSRLQSGVPSRFSGSGSGTDFTLTISSLQPEDFATYFCQQGNTWPPTFGQGTKLEIKRGGSGGGGSGDVLMTQTPLSLPVTPGEPASISCTSSQNIVHSNGNTYLEWYLQKPGQSPQLLIYKVSNRFSGVPDRFSGSGSGTDFTLKISRVEAEDVGVYYCFQVSHVPYTFGGGTKVEIKR

N-Terminal VD huTNFα Neutralization Assay IC50: 0.008 nM
B4: DVD3018 (bispecific antibody, IgG1)
VH: B3 VH with A30N, T102N, M104V, D105A
VL: B3 VL with S30E, Q31N, W94Q

N-Terminal VD huTNFα Neutralization Assay IC50: 0.003 nM
B5: DVD2794 (bispecific antibody, IgG1)
VH: EVQLVQSGAEVKKPGASVKVSCKASGYTFANYGIIWVRQAPGQGLEWMGWINTYTGKPTYAQKFQGRVTMTTDTSTSTAYMELSSLRSEDTAVYYCARKLFTTMDVTDNAMDYWGQGTTVTVSSASTKGPEVQLVQSGAEVKKPGASVKVSCKASGYTFTKYWLGWVRQAPGQGLEWMGDIYPGYDYTHYNEKFKDRVTLTTDTSTSTAYMELRSLRSDDTAVYYCARSDGSSTYWGQGTLVTVSS
VL: DIQMTQSPSSLSASVGDRVTITCRASQDISQYLNWYQQKPGKAPKLLIYYTSRLQSGVPSRFSGSGSGTDFTLTISSLQPEDFATYFCQQGNTWPPTFGQGTKLEIKRTVAAPDVLMTQTPLSLPVTPGEPASISCTSSQNIVHSNGNTYLEWYLQKPGQSPQLLIYKVSNRFSGVPDRFSGSGSGTDFTLKISRVEAEDVGVYYCFQVSHVPYTFGGGTKVEIKR

N-Terminal VD huTNFα Neutralization Assay IC50: 0.002 nM
B6: DVD2797 (bispecific antibody, IgG1)
VH: EVQLVQSGAEVKKPGASVKVSCKASGYTFANYGIIWVRQAPGQGLEWMGWINTYTGKPTYAQKFQGRVTMTTDTSTSTAYMELSSLRSEDTAVYYCARKLFTTMDVTDNAMDYWGQGTTVTVSSASTKGPSVFPLAPEVQLVQSGAEVKKPGASVKVSCKASGYTFTKYWLGWVRQAPGQGLEWMGDIYPGYDYTHYNEKFKDRVTLTTDTSTSTAYMELRSLRSDDTAVYYCARSDGSSTYWGQGTLVTVSS
VL: B5 VL

N-Terminal VD huTNFα Neutralization Assay IC50: 0.01 nM
B7: DVD2796 (bispecific antibody, IgG1)
VH: B5 VH
VL: DIQMTQSPSSLSASVGDRVTITCRASQDISQYLNWYQQKPGKAPKLLIYYTSRLQSGVPSRFSGSGSGTDFTLTISSLQPEDFATYFCQQGNTWPPTFGQGTKLEIKRTVAAPSVFIFPPDVLMTQTPLSLPVTPGEPASISCTSSQNIVHSNGNTYLEWYLQKPGQSPQLLIYKVSNRFSGVPDRFSGSGSGTDFTLKISRVEAEDVGVYYCFQVSHVPYTFGGGTKVEIKR

C-Terminal VD huTNFα Neutralization Assay IC50: 0.381 nM
B8: DVD2798 (bispecific antibody, IgG1)
VH: EVQLVQSGAEVKKPGASVKVSCKASGYTFTKYWLGWVRQAPGQGLEWMGDIYPGYDYTHYNEKFKDRVTLTTDTSTSTAYMELRSLRSDDTAVYYCARSDGSSTYWGQGTLVTVSSGGGGSGGGGSEVQLVQSGAEVKKPGASVKVSCKASGYTFANYGIIWVRQAPGQGLEWMGWINTYTGKPTYAQKFQGRVTMTTDTSTSTAYMELSSLRSEDTAVYYCARKLFTTMDVTDNAMDYWGQGTTVTVSS
VL: DVLMTQTPLSLPVTPGEPASISCTSSQNIVHSNGNTYLEWYLQKPGQSPQLLIYKVSNRFSGVPDRFSGSGSGTDFTLKISRVEAEDVGVYYCFQVSHVPYTFGGGTKVEIKRGGSGGGGSGDIQMTQSPSSLSASVGDRVTITCRASQDISQYLNWYQQKPGKAPKLLIYYTSRLQSGVPSRFSGSGSGTDFTLTISSLQPEDFATYFCQQGNTWPPTFGQGTKLEIKR

C-Terminal VD huTNFα Neutralization Assay IC50: 3.08 nM
B9: DVD2799 (bispecific antibody, IgG1)
VH: EVQLVQSGAEVKKPGASVKVSCKASGYTFTKYWLGWVRQAPGQGLEWMGDIYPGYDYTHYNEKFKDRVTLTTDTSTSTAYMELRSLRSDDTAVYYCARSDGSSTYWGQGTLVTVSSASTKGPEVQLVQSGAEVKKPGASVKVSCKASGYTFANYGIIWVRQAPGQGLEWMGWINTYTGKPTYAQKFQGRVTMTTDTSTSTAYMELSSLRSEDTAVYYCARKLFTTMDVTDNAMDYWGQGTTVTVSS
VL: DVLMTQTPLSLPVTPGEPASISCTSSQNIVHSNGNTYLEWYLQKPGQSPQLLIYKVSNRFSGVPDRFSGSGSGTDFTLKISRVEAEDVGVYYCFQVSHVPYTFGGGTKVEIKRTVAAPDIQMTQSPSSLSASVGDRVTITCRASQDISQYLNWYQQKPGKAPKLLIYYTSRLQSGVPSRFSGSGSGTDFTLTISSLQPEDFATYFCQQGNTWPPTFGQGTKLEIKR

C-Terminal VD huTNFα Neutralization Assay IC50: 0.195 nM
B10: DVD2802 (bispecific antibody, IgG1)
VH: EVQLVQSGAEVKKPGASVKVSCKASGYTFTKYWLGWVRQAPGQGLEWMGDIYPGYDYTHYNEKFKDRVTLTTDTSTSTAYMELRSLRSDDTAVYYCARSDGSSTYWGQGTLVTVSSASTKGPSVFPLAPEVQLVQSGAEVKKPGASVKVSCKASGYTFANYGIIWVRQAPGQGLEWMGWINTYTGKPTYAQKFQGRVTMTTDTSTSTAYMELSSLRSEDTAVYYCARKLFTTMDVTDNAMDYWGQGTTVTVSS
VL: B9 VL

C-Terminal VD huTNFα Neutralization Assay IC50: 0.116 nM
B11: DVD2801 (bispecific antibody, IgG1)
VH: B9 VH
VL: DVLMTQTPLSLPVTPGEPASISCTSSQNIVHSNGNTYLEWYLQKPGQSPQLLIYKVSNRFSGVPDRFSGSGSGTDFTLKISRVEAEDVGVYYCFQVSHVPYTFGGGTKVEIKRTVAAPSVFIFPPDIQMTQSPSSLSASVGDRVTITCRASQDISQYLNWYQQKPGKAPKLLIYYTSRLQSGVPSRFSGSGSGTDFTLTISSLQPEDFATYFCQQGNTWPPTFGQGTKLEIKR

C-Terminal VD huTNFα Neutralization Assay IC50: 0.384 nM
B12: DVD2752 (bispecific antibody, IgG1)
VH: EVQLVQSGAEVKKPGASVKVSCKASGYTFTKYWLGWVRQAPGQGLEWMGDIYPGYDYTHYNEKFKDRVTLTTDTSTSTAYMELRSLRSDDTAVYYCARSDGSSTYWGQGTLVTVSSASTKGPSVFPLAPEVQLVESGGGLVQPGGSLRLSCAASGFTFSNYGVEWVRQAPGKGLEWVSGIWADGSTHYADTVKSRFTISRDNSKNTLYLQMNSLRAEDTAVYYCAREWQHGPVAYWGQGTLVTVSS
VL: DVLMTQTPLSLPVTPGEPASISCTSSQNIVHSNGNTYLEWYLQKPGQSPQLLIYKVSNRFSGVPDRFSGSGSGTDFTLKISRVEAEDVGVYYCFQVSHVPYTFGGGTKVEIKRTVAAPDIQMTQSPSSLSASVGDRVTITCKASQLVSSAVAWYQQKPGKAPKLLIYWASTLHTGVPSRFSGSGSGTDFTLTISSLQPEDFATYYCQQHYRTPFTFGQGTKLEIKR
